First the molecules themselves.
B1: YPL082C 209-222 (peptide)
chain: KMSAKNTPKHPVDI
B2: YBL008W 776-789 (peptide)
chain: KLVLRNVPILPILN
B3: YBR270C 208-221 (peptide)
chain: KMAKKLLPYKPHNS
B4: YMR247C 301-314 (peptide)
chain: KNILKVSPVLPSIL
B5: YLR183C 350-363 (peptide)
chain: KLNKRVLPSKPKKS
B6: YDR406W 496-509 (peptide)
chain: KQAKRAPPSSPYVV
B7: YGR058W 101-114 (peptide)
chain: KPAGRPIPPAPTHY
B8: YER172C 1312-1325 (peptide)
chain: KLPKKFPPPTPLLE
B9: YOL164W 144-157 (peptide)
chain: KLYYRHRPQKPVRT
B10: YPL093W 383-396 (peptide)
chain: KNLKKYDPEDPNRR
B11: YLR142W 425-438 (peptide)
chain: KNIIKYVPWGPPLE
B12: YKL089W 339-352 (peptide)
chain: KQKKKPTPTRPYNY
B13: YLR077W 141-154 (peptide)
chain: KNLLREIPQVPAFQ
B14: YLR337C 698-711 (peptide)
chain: KNPTKSPPPPPSPS

One test concerns the target T1, Myo5 SH3 (MYO5_YEAST), Q04439.
T1 chain: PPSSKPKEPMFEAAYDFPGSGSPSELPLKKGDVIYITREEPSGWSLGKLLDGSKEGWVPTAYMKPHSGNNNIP
Description: SPOT array.
On to B1, for which the normalised SPOT signal, Boehringer light units (BLU); mean over the file's lines of this peptide was 307.
The same measure, in the same setting: to B2 belongs 303; to B3, 708.
B4 displayed a normalised SPOT signal, Boehringer light units (BLU); mean over the file's lines of this peptide of 118.
Molecule B5 gave a normalised SPOT signal, Boehringer light units (BLU); mean over the file's lines of this peptide of 919.
B6 came in with a normalised SPOT signal, Boehringer light units (BLU); mean over the file's lines of this peptide of 295.
Same read-out and setting: next, B7: 189; B8: 19700; B9: 916.
Same read-out and setting: next, B10: 207.
With B11, the normalised SPOT signal, Boehringer light units (BLU); mean over the file's lines of this peptide came to 164.
B12 displayed a normalised SPOT signal, Boehringer light units (BLU); mean over the file's lines of this peptide of 516.
In turn, B13 showed a normalised SPOT signal, Boehringer light units (BLU); mean over the file's lines of this peptide of 104.
B14 gave a normalised SPOT signal, Boehringer light units (BLU); mean over the file's lines of this peptide of 27800.

Another test deals with T2, Boi2 SH3 (BOI2_YEAST), P39969.
T2 chain: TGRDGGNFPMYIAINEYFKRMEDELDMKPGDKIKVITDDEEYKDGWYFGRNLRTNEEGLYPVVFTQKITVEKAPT
Nature of the test: SPOT array.
Molecule B1 came in with a normalised SPOT signal, Boehringer light units (BLU); mean over the file's lines of this peptide of 42.3.
As for B2, the normalised SPOT signal, Boehringer light units (BLU); mean over the file's lines of this peptide stood at 17.3.
Regarding B3, the normalised SPOT signal, Boehringer light units (BLU); mean over the file's lines of this peptide was 9.1.
In the case of B4, the normalised SPOT signal, Boehringer light units (BLU); mean over the file's lines of this peptide worked out at 0.8.
Molecule B5 had a normalised SPOT signal, Boehringer light units (BLU); mean over the file's lines of this peptide of 1.5.
For the molecule B6, the normalised SPOT signal, Boehringer light units (BLU); mean over the file's lines of this peptide is 2.9.
As for B7, the normalised SPOT signal, Boehringer light units (BLU); mean over the file's lines of this peptide was determined as 0.
Take B8: the normalised SPOT signal, Boehringer light units (BLU); mean over the file's lines of this peptide was 0.
Turning to B9, the normalised SPOT signal, Boehringer light units (BLU); mean over the file's lines of this peptide amounted to 27.1.
B10 displayed a normalised SPOT signal, Boehringer light units (BLU); mean over the file's lines of this peptide of 0.
On to B11, for which the normalised SPOT signal, Boehringer light units (BLU); mean over the file's lines of this peptide amounted to 13.9.
For the molecule B12, the normalised SPOT signal, Boehringer light units (BLU); mean over the file's lines of this peptide stood at 26.3.
The molecule B13 returned a normalised SPOT signal, Boehringer light units (BLU); mean over the file's lines of this peptide of 6.5.
Molecule B14 showed a normalised SPOT signal, Boehringer light units (BLU); mean over the file's lines of this peptide of 16.7.

For another test, the target named is T3, Boi1 SH3 (BOI1_YEAST), P38041.
T3 chain: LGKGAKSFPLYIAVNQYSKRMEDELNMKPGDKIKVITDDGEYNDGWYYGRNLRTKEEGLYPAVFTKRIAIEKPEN
Nature of the test: SPOT array.
B1 yielded a normalised SPOT signal, Boehringer light units (BLU); mean over the file's lines of this peptide of 1220.
Same read-out and setting: next, B2: 41.9.
As for B3, the normalised SPOT signal, Boehringer light units (BLU); mean over the file's lines of this peptide was determined as 156.
The molecule B4 showed a normalised SPOT signal, Boehringer light units (BLU); mean over the file's lines of this peptide of 304.
The same measure, in the same setting: to B5 belongs 309; to B6, 470.
Molecule B7 displayed a normalised SPOT signal, Boehringer light units (BLU); mean over the file's lines of this peptide of 90.4.
B8: the normalised SPOT signal, Boehringer light units (BLU); mean over the file's lines of this peptide was 821.
For the molecule B9, the normalised SPOT signal, Boehringer light units (BLU); mean over the file's lines of this peptide was 599.
With B10, the normalised SPOT signal, Boehringer light units (BLU); mean over the file's lines of this peptide worked out at 656.
B11 returned a normalised SPOT signal, Boehringer light units (BLU); mean over the file's lines of this peptide of 0.
Consider B12, for which the normalised SPOT signal, Boehringer light units (BLU); mean over the file's lines of this peptide turned out to be 33.6.
For B13, the normalised SPOT signal, Boehringer light units (BLU); mean over the file's lines of this peptide was determined as 196.
Same read-out and setting: to B14 belongs 36.2.

For a further test, the target named is T4, Yhr016c SH3 (YSC84_YEAST), P32793.
T4 chain: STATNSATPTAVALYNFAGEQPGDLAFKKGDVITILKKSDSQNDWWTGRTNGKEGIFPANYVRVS
Description: SPOT array.
The molecule B1 came in with a normalised SPOT signal, Boehringer light units (BLU); mean over the file's lines of this peptide of 332.
Same read-out and setting: next, B2: 74.5; B3: 37.4.
Regarding B4, the normalised SPOT signal, Boehringer light units (BLU); mean over the file's lines of this peptide stood at 10.1.
Still for that read-out and setting: to B5 belongs 165.
Same read-out and setting: to B6 belongs 20.9; to B7, 2860.
On the same count and under the same terms, to B8 belongs 6; to B9, 86.9.
The molecule B10 showed a normalised SPOT signal, Boehringer light units (BLU); mean over the file's lines of this peptide of 71.3.
The molecule B11 displayed a normalised SPOT signal, Boehringer light units (BLU); mean over the file's lines of this peptide of 26.6.
The molecule B12 displayed a normalised SPOT signal, Boehringer light units (BLU); mean over the file's lines of this peptide of 44.3.
B13 displayed a normalised SPOT signal, Boehringer light units (BLU); mean over the file's lines of this peptide of 142.
In the case of B14, the normalised SPOT signal, Boehringer light units (BLU); mean over the file's lines of this peptide stood at 11.2.

The target of another test is T5, Yfr024 SH3 (LSB3_YEAST), P43603.
T5 chain: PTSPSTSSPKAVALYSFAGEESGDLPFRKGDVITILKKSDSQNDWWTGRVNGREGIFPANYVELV
Nature of the test: SPOT array.
Consider B1, for which the normalised SPOT signal, Boehringer light units (BLU); mean over the file's lines of this peptide was determined as 978.
Consider B2, for which the normalised SPOT signal, Boehringer light units (BLU); mean over the file's lines of this peptide amounted to 1510.
The same measure, in the same setting: next, B3: 182; B4: 0; B5: 2670.
The molecule B6 showed a normalised SPOT signal, Boehringer light units (BLU); mean over the file's lines of this peptide of 152.
In turn, B7 had a normalised SPOT signal, Boehringer light units (BLU); mean over the file's lines of this peptide of 4480.
Take B8: the normalised SPOT signal, Boehringer light units (BLU); mean over the file's lines of this peptide was 39.9.
In the case of B9, the normalised SPOT signal, Boehringer light units (BLU); mean over the file's lines of this peptide is 756.
As to B10, the normalised SPOT signal, Boehringer light units (BLU); mean over the file's lines of this peptide was determined as 45.8.
On the same count and under the same terms, next, B11: 1.3.
On the same count and under the same terms, to B12 belongs 680; to B13, 1080.
B14 had a normalised SPOT signal, Boehringer light units (BLU); mean over the file's lines of this peptide of 74.8.

The next test deals with T6, Rvs167 SH3 (RV167_YEAST), P39743.
T6 chain: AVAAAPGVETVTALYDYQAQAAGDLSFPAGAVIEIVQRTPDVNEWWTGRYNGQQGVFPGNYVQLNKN
Nature of the test: SPOT array.
With B1, the normalised SPOT signal, Boehringer light units (BLU); mean over the file's lines of this peptide is 301.
In turn, B2 had a normalised SPOT signal, Boehringer light units (BLU); mean over the file's lines of this peptide of 383.
B3 gave a normalised SPOT signal, Boehringer light units (BLU); mean over the file's lines of this peptide of 37.6.
Molecule B4 yielded a normalised SPOT signal, Boehringer light units (BLU); mean over the file's lines of this peptide of 59.5.
Molecule B5 gave a normalised SPOT signal, Boehringer light units (BLU); mean over the file's lines of this peptide of 810.
As for B6, the normalised SPOT signal, Boehringer light units (BLU); mean over the file's lines of this peptide came out at 19.4.
Take B7: the normalised SPOT signal, Boehringer light units (BLU); mean over the file's lines of this peptide was determined as 2260.
As for B8, the normalised SPOT signal, Boehringer light units (BLU); mean over the file's lines of this peptide came to 10.1.
On the same count and under the same terms, to B9 belongs 153.
In turn, B10 yielded a normalised SPOT signal, Boehringer light units (BLU); mean over the file's lines of this peptide of 121.
B11 yielded a normalised SPOT signal, Boehringer light units (BLU); mean over the file's lines of this peptide of 16.2.
For B12, the normalised SPOT signal, Boehringer light units (BLU); mean over the file's lines of this peptide is 31.6.
Molecule B13 came in with a normalised SPOT signal, Boehringer light units (BLU); mean over the file's lines of this peptide of 2030.
Still for that read-out and setting: next, B14: 41.

A further test deals with Sho1 SH3 (SHO1_YEAST), P40073. Description: SPOT array.
Sho1 SH3 (SHO1_YEAST), P40073, sequence (P40073 295-366): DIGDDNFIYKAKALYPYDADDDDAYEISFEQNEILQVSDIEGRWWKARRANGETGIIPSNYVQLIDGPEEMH
Turning to B1, the normalised SPOT signal, Boehringer light units (BLU); mean over the file's lines of this peptide came to 102.
As to B2, the normalised SPOT signal, Boehringer light units (BLU); mean over the file's lines of this peptide was 24.2.
Molecule B3 came in with a normalised SPOT signal, Boehringer light units (BLU); mean over the file's lines of this peptide of 522.
B4 displayed a normalised SPOT signal, Boehringer light units (BLU); mean over the file's lines of this peptide of 57.8.
For B5, the normalised SPOT signal, Boehringer light units (BLU); mean over the file's lines of this peptide amounted to 1390.
For the molecule B6, the normalised SPOT signal, Boehringer light units (BLU); mean over the file's lines of this peptide is 127.
In the case of B7, the normalised SPOT signal, Boehringer light units (BLU); mean over the file's lines of this peptide came out at 115.
B8 displayed a normalised SPOT signal, Boehringer light units (BLU); mean over the file's lines of this peptide of 69.2.
The molecule B9 gave a normalised SPOT signal, Boehringer light units (BLU); mean over the file's lines of this peptide of 126.
Same read-out and setting: next, B10: 76.6; B11: 33.3.
In the case of B12, the normalised SPOT signal, Boehringer light units (BLU); mean over the file's lines of this peptide was determined as 97.1.
As for B13, the normalised SPOT signal, Boehringer light units (BLU); mean over the file's lines of this peptide was 84.8.
The molecule B14 displayed a normalised SPOT signal, Boehringer light units (BLU); mean over the file's lines of this peptide of 0.

The values are drawn from article PMC314469, “Protein Interaction Networks by Proteome Peptide Scanning” (PLoS Biology, 2004).
